Values belong to the binder of their own block, whether it stands above or below them.
Legend:
Assay in all cases: holdup assay
Parameters in all cases: key: below the threshold = too weak to quantify, mostly under pKd 3.1 to 4
Inadl_8, Q8NI35 = molecular target: Inadl_8, Q8NI35
IL16_1, Q14005 = molecular target: IL16_1, Q14005
GRIP2_3, Q9C0E4 = molecular target: GRIP2_3, Q9C0E4
MAGI2_3, Q86UL8 = molecular target: MAGI2_3, Q86UL8
DLG1_1, Q12959 = molecular target: DLG1_1, Q12959
RAPGEF6, Q8TEU7 = molecular target: T1, RAPGEF6, Q8TEU7
T1 sequence (Q8TEU7 525-625, limits assumed, looked up): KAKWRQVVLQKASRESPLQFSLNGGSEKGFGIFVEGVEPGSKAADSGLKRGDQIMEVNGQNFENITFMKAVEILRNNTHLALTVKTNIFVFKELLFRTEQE

DLG1_3, Q12959 = molecular target: DLG1_3, Q12959
GRIP2_4, Q9C0E4 = molecular target: GRIP2_4, Q9C0E4
DFNB31_1, Q9P202 = molecular target: T2, DFNB31_1, Q9P202
T2 sequence (Q9P202 135-233, limits assumed, looked up): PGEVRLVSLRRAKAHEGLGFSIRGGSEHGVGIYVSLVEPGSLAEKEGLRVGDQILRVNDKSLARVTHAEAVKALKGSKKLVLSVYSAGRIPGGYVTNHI

GRIP1_3, Q9Y3R0 = molecular target: T3, GRIP1_3, Q9Y3R0
T3 sequence (Q9Y3R0 247-346, limits assumed, looked up): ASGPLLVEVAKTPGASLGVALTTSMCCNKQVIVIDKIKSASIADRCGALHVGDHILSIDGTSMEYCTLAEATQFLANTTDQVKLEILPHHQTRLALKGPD

LIMK2, P53671 = molecular target: LIMK2, P53671
RHPN1, Q8TCX5 = molecular target: T4, RHPN1, Q8TCX5
T4 sequence (Q8TCX5 508-602, limits assumed, looked up): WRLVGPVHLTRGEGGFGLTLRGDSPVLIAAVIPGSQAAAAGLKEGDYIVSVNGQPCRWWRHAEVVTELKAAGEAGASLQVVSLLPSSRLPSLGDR

PARD3_3, Q8TEW0 = molecular target: PARD3_3, Q8TEW0
SNTG1, Q9NSN8 = molecular target: T5, SNTG1, Q9NSN8
T5 sequence (Q9NSN8 52-150, limits assumed, looked up): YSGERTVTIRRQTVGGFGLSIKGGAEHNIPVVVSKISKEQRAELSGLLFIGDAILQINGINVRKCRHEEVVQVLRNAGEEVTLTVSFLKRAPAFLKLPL

DLG4_2, P78352 = molecular target: DLG4_2, P78352
LIN7C, Q9NUP9 = molecular target: T6, LIN7C, Q9NUP9
T6 sequence (Q9NUP9 88-185, limits assumed, looked up): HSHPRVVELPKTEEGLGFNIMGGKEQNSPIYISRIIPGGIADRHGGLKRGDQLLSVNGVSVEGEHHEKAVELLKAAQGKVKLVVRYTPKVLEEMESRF

Inadl_2, Q8NI35 = molecular target: Inadl_2, Q8NI35
ARHGEF11, O15085 = molecular target: T7, ARHGEF11, O15085
T7 sequence (O15085 42-136, limits assumed, looked up): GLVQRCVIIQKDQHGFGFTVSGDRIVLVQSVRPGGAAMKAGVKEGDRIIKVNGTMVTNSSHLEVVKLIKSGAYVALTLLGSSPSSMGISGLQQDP

PDZRN4_1, Q6ZMN7 = molecular target: PDZRN4_1, Q6ZMN7
DVL3, Q92997 = molecular target: T8, DVL3, Q92997
T8 sequence (Q92997 244-331, limits assumed, looked up): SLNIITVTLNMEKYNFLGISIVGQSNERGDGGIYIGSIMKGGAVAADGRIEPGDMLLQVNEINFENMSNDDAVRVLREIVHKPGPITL

HTRA1, Q92743 = molecular target: HTRA1, Q92743
FRMPD2_2, Q68DX3 = molecular target: FRMPD2_2, Q68DX3
TIAM2, Q8IVF5 = molecular target: T9, TIAM2, Q8IVF5
T9 sequence (Q8IVF5 885-986, limits assumed, looked up): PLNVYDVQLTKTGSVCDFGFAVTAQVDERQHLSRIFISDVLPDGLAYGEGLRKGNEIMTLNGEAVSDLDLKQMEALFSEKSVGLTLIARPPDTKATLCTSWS

DLG5_1, Q8TDM6 = molecular target: DLG5_1, Q8TDM6
SNTG2, Q9NY99 = molecular target: T10, SNTG2, Q9NY99
T10 sequence (Q9NY99 68-166, limits assumed, looked up): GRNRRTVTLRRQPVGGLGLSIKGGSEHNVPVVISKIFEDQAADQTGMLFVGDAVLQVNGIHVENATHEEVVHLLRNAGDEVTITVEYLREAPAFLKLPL

DFNB31_3, Q9P202 = molecular target: T11, DFNB31_3, Q9P202
T11 sequence (Q9P202 811-907, limits assumed, looked up): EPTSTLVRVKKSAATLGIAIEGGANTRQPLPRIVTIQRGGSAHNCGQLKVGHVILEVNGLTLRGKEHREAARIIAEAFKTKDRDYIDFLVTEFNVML

DLG2_2, Q15700 = molecular target: DLG2_2, Q15700
[1] = plain residues with an end cap or a label only (N-terminal biotin on a linker: ahx)
[2] = plain residues with an end cap or a label only (N-terminal biotin on a linker: ttds)
[3] = plain residues with an end cap or a label only (N-terminal biotin on a linker: ado-ado)

Inadl_8, Q8NI35, sequence (Q8NI35 1425-1530): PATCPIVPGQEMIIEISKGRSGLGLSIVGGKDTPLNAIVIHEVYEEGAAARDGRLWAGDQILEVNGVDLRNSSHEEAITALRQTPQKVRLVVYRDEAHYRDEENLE
GRIP2_4, Q9C0E4, sequence (Q9C0E4 446-548): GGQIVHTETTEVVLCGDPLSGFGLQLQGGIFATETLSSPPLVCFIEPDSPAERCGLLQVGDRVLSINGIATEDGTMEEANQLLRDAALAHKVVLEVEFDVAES
LIMK2, P53671, sequence (P53671 143-248): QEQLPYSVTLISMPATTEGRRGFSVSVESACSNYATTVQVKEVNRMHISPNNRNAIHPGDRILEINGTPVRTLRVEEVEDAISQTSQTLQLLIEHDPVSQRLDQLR
MAGI2_3, Q86UL8, sequence (Q86UL8 600-682): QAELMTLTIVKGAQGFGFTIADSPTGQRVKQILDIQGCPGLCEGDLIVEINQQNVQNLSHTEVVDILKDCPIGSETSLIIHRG
DLG5_1, Q8TDM6, sequence (Q8TDM6 617-713): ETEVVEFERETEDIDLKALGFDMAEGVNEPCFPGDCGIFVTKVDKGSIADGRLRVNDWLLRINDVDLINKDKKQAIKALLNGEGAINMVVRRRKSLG
HTRA1, Q92743, sequence (Q92743 360-477): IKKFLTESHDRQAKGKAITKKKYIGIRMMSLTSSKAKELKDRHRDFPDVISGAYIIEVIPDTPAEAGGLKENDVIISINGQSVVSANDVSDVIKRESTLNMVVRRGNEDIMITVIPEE
GRIP2_3, Q9C0E4, sequence (Q9C0E4 238-339): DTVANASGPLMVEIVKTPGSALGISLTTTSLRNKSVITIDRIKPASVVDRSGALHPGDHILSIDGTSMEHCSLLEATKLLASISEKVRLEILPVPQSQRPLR
DLG4_2, P78352, sequence (P78352 155-259): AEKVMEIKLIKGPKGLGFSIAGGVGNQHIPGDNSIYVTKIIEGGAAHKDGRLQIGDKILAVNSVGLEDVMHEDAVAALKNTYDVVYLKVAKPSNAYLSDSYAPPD
PDZRN4_1, Q6ZMN7, sequence (Q6ZMN7 213-318): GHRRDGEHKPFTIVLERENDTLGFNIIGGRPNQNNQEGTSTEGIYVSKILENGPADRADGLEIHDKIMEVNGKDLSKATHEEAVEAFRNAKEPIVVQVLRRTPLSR
Inadl_2, Q8NI35, sequence (Q8NI35 238-335): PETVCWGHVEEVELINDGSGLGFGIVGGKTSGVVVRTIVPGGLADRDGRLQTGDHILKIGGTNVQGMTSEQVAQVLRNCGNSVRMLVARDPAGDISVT
IL16_1, Q14005, sequence (Q14005 210-306): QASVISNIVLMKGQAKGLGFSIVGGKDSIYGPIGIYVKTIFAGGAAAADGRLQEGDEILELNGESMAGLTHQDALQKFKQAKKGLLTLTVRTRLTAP
PARD3_3, Q8TEW0, sequence (Q8TEW0 582-685): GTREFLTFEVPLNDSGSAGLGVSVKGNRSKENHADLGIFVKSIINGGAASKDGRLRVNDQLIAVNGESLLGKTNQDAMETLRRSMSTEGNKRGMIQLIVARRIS
FRMPD2_2, Q68DX3, sequence (Q68DX3 944-1038): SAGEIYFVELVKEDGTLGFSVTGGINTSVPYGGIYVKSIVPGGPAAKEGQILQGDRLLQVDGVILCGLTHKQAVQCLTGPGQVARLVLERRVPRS
DLG2_2, Q15700, sequence (Q15700 189-283): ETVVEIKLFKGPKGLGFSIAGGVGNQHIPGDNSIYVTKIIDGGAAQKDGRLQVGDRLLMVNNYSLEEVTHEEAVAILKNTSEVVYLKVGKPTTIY

pKd (Inadl_8, Q8NI35; [1]): below the threshold | pKd (IL16_1, Q14005; [1]): below the threshold | pKd (GRIP2_3, Q9C0E4; [1]): below the threshold | pKd (MAGI2_3, Q86UL8; [1]): below the threshold | pKd (DLG1_1, Q12959; [1]): below the threshold | pKd (RAPGEF6, Q8TEU7; [1]): below the threshold | pKd (DLG1_3, Q12959; [1]): below the threshold | pKd (GRIP2_4, Q9C0E4; [1]): below the threshold | pKd (DFNB31_1, Q9P202; [1]): below the threshold | pKd (GRIP1_3, Q9Y3R0; [1]): below the threshold | pKd (LIMK2, P53671; [1]): below the threshold | pKd (RHPN1, Q8TCX5; [1]): 4.11 | pKd (PARD3_3, Q8TEW0; [1]): 5.09 | pKd (SNTG1, Q9NSN8; [1]): below the threshold | pKd (DLG4_2, P78352; [1]): below the threshold | pKd (LIN7C, Q9NUP9; [1]): below the threshold | pKd (Inadl_2, Q8NI35; [1]): 4.09 | pKd (ARHGEF11, O15085; [1]): below the threshold | pKd (PDZRN4_1, Q6ZMN7; [1]): below the threshold | pKd (DVL3, Q92997; [1]): 3.62 | pKd (HTRA1, Q92743; [1]): 4.3 | pKd (FRMPD2_2, Q68DX3; [1]): below the threshold | pKd (TIAM2, Q8IVF5; [1]): below the threshold | pKd (DLG5_1, Q8TDM6; [1]): below the threshold | pKd (SNTG2, Q9NY99; [1]): below the threshold | pKd (DFNB31_3, Q9P202; [1]): 3.88 | pKd (DLG2_2, Q15700; [1]): below the threshold
Binder: KEYDDELTFF [USH1C, Q9Y6N9]

pKd (Inadl_8, Q8NI35; [2]): 4.04 | pKd (IL16_1, Q14005; [2]): below the threshold | pKd (GRIP2_3, Q9C0E4; [2]): below the threshold | pKd (MAGI2_3, Q86UL8; [2]): below the threshold | pKd (DLG1_1, Q12959; [2]): below the threshold | pKd (RAPGEF6, Q8TEU7; [2]): below the threshold | pKd (DLG1_3, Q12959; [2]): 3.81 | pKd (GRIP2_4, Q9C0E4; [2]): below the threshold | pKd (DFNB31_1, Q9P202; [2]): below the threshold | pKd (GRIP1_3, Q9Y3R0; [2]): below the threshold | pKd (LIMK2, P53671; [2]): below the threshold | pKd (RHPN1, Q8TCX5; [2]): below the threshold | pKd (PARD3_3, Q8TEW0; [2]): below the threshold | pKd (SNTG1, Q9NSN8; [2]): below the threshold | pKd (DLG4_2, P78352; [2]): 3.75 | pKd (LIN7C, Q9NUP9; [2]): 3.63 | pKd (Inadl_2, Q8NI35; [2]): below the threshold | pKd (ARHGEF11, O15085; [2]): below the threshold | pKd (PDZRN4_1, Q6ZMN7; [2]): 3.57 | pKd (DVL3, Q92997; [2]): 3.6 | pKd (HTRA1, Q92743; [2]): below the threshold | pKd (FRMPD2_2, Q68DX3; [2]): below the threshold | pKd (TIAM2, Q8IVF5; [2]): below the threshold | pKd (DLG5_1, Q8TDM6; [2]): below the threshold | pKd (SNTG2, Q9NY99; [2]): below the threshold | pKd (DFNB31_3, Q9P202; [2]): below the threshold | pKd (DLG2_2, Q15700; [2]): below the threshold
Binder: PFRSRSPSEV [GPR6, P46095]

pKd (Inadl_8, Q8NI35; [3]): below the threshold | pKd (IL16_1, Q14005; [3]): below the threshold | pKd (GRIP2_3, Q9C0E4; [3]): below the threshold | pKd (MAGI2_3, Q86UL8; [3]): below the threshold | pKd (DLG1_1, Q12959; [3]): below the threshold | pKd (RAPGEF6, Q8TEU7; [3]): below the threshold | pKd (DLG1_3, Q12959; [3]): below the threshold | pKd (GRIP2_4, Q9C0E4; [3]): below the threshold | pKd (DFNB31_1, Q9P202; [3]): 3.48 | pKd (GRIP1_3, Q9Y3R0; [3]): below the threshold | pKd (LIMK2, P53671; [3]): below the threshold | pKd (RHPN1, Q8TCX5; [3]): 3.55 | pKd (PARD3_3, Q8TEW0; [3]): below the threshold | pKd (SNTG1, Q9NSN8; [3]): below the threshold | pKd (DLG4_2, P78352; [3]): below the threshold | pKd (LIN7C, Q9NUP9; [3]): below the threshold | pKd (Inadl_2, Q8NI35; [3]): below the threshold | pKd (ARHGEF11, O15085; [3]): below the threshold | pKd (PDZRN4_1, Q6ZMN7; [3]): below the threshold | pKd (DVL3, Q92997; [3]): below the threshold | pKd (HTRA1, Q92743; [3]): below the threshold | pKd (FRMPD2_2, Q68DX3; [3]): below the threshold | pKd (TIAM2, Q8IVF5; [3]): below the threshold | pKd (DLG5_1, Q8TDM6; [3]): below the threshold | pKd (SNTG2, Q9NY99; [3]): below the threshold | pKd (DFNB31_3, Q9P202; [3]): below the threshold | pKd (DLG2_2, Q15700; [3]): below the threshold
Binder: EKPIDSETKM [SLC1A3, P43003]

Reference: PMC9482650, “Quantitative fragmentomics allow affinity mapping of interactomes” (Nature Communications, 2022)
